From the domain aggregation screens of Martell et al. (2025) come the findings set out here.

This data set can be described thus: soluble fraction after stress (log2 fold change); higher = more stays soluble; pooled small domains, quantitative proteomics. Particulars: stress: 50 degC. The method, boiled down:
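Custom libraries of small protein domains were pooled and measured in a high-throughput format, with quantitative proteomics as the read-out. Each library was stressed at 50°C. The value is the log2 fold change in the amount of each protein that stays soluble after stress, used as a measure of aggregation propensity; higher values mean more of the protein stays soluble.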
As to “HMDKRYYYRILGLVGEPTRDQIEAAYETRIAKLRSSDYGDDPLYARRKISEVTMAYKVLTGS”, the “soluble fraction (log2)” value is -0.281. On to “HMDKSFLQSLHLIALGIVKNQMDPWELVNGWVEYYLKNKDKYIDHPNLKAVAVLKMKGLFIDHFRKS”, for which the “soluble fraction (log2)” value is -4.84.

Consider “HMDKSHYEELGVSRTATHAEIRRAYRHLMRTLHPDSNDGRVDAVRITKVNEAWNVLSQSSSRNAYDKSQV”, for which the “soluble fraction (log2)” value is -0.38. Turning to “HMDKTTIKNEQKKQILIFAEMNLFFKAKDVAELLGLQASRARYLLQELVKDGKIQGIGNNKGRKYQLI”, the “soluble fraction (log2)” value is -0.438.

Regarding “HMDKVEQLMQNPVIQEKMSEGDRELLRNASLVVLGRLEDDGSIIQRFVELFGEEAYERLKSELM”, the “soluble fraction (log2)” value worked out at 0.259. As to “HMDLDIGSVLQASRGEKKISLRQLAERTGLTASMLSQIERNLVNPSINTLKVIAAALEIPMYKFFMG”, the “soluble fraction (log2)” value is -0.835. For “HMDLEMLEVEDTIKDLLSQHQKINAIKYYRNYMSEQLNVDMGLRQAKDTIDAIGRGATVDLSVGY”, the “soluble fraction (log2)” value is -0.0705. As to “HMDLIEVLAQDTIKKIYNTYVAYKNKVDVFYVAFSGGKDSIVTLDLVQRTLPHNEFKVLFGDTGM”, the “soluble fraction (log2)” value was determined as 0.133.

With “HMDLIFQKGDLVFSTEHNQRGIFYEYLEQGQAKISIEKQFFVVAARRLQLLTKREVLYPAGYDLDQLFV”, the “soluble fraction (log2)” value is -0.0465. Turning to “HMDLKENQHILQISNKGVQMGNVLKDLIIQTLNITNGNQIKAAKLLAISRAKLRYRIEQLGINISGKNI”, the “soluble fraction (log2)” value was -0.215. With “HMDLKHNQITMRELLRNKQAYLLLYKEFPMFMTPAILQNIRPLTLQQIIQMVRPYISRPKLNMLLEQLENI”, the “soluble fraction (log2)” value was -0.124.

In the case of “HMDLMQRVIIVRPVMQGDYLTRAHLGLQTLSRNGGGGFTDIDDLVGRRAKKSLRAGLVVHNRHL”, the “soluble fraction (log2)” value was -0.694.

Take “HMDLPAEFSKPELETLFKRGKQSGELSLTEVRDALEAAQLPNKKTQTKVLKVLSDNAIHVLMDG”: the “soluble fraction (log2)” value came to 0.146. “HMDLPDFTSRERDILARVVQGDSNERIAASLGVSVSTVKTHIGNILRKTGQTNRVRLIVWATRHL”: the “soluble fraction (log2)” value is -1.72. Regarding “HMDLPDYYFRVRENGAVVFRVGTENRQRRIEMVEIATVNVKNGNIKPHGEVDLTKADRLAIGEWLAARQAQ”, the “soluble fraction (log2)” value was -1.36. Take “HMDLPRQSQYQALVVSYARRAGIDEAEEDLLAAFEVWRMRHNHDLAGGRTARDFILAYLPQYQRHKE”: the “soluble fraction (log2)” value was -1.63. Regarding “HMDLQNIQNQLNTEFAKSDTRIIFWFDDKGEYEDEVSELQLGDVKLHILDGLNWFYSKYLLNEA”, the “soluble fraction (log2)” value is -0.274.

As to “HMDLRAPKPIKEMGEEYIKLYQYLRKGESENIVMSKMNISLDDYDYMRSEIEDKLSLYNMLDLLRKP”, the “soluble fraction (log2)” value was -0.718. “HMDLRVKRTNKMIMEAFIHLVEQKGYDNITVQEIADEAMINRATFYAHFKDKQDLYDHIFKQAI”: the “soluble fraction (log2)” value is -0.762.

Regarding “HMDLSPEQAELAAIRGELGIKIDDYALALNIPRDRLTSYLYGRANVPAEVLISARELRYASSA”, the “soluble fraction (log2)” value came to 0.00303. Turning to “HMDMQNIQKGLSAIEPGRTFSREEYYAAIQNGSEMLLKEDALAYSLRKSLSDGDIVRVSWNQYAIP”, the “soluble fraction (log2)” value was -0.116.

Turning to “HMDMTPEEFLAWARHKPFGDPFPKTQTVTFLVPLLGVSRTNIFTWISGKVNPSKTSLLLMEALKRENR”, the “soluble fraction (log2)” value was -0.289. With “HMDNEIEQIVEDLNLTLSSLKYTKNQIESILPLIIKEIDDFKKKEKNISFENLLKLAMNHLDND”, the “soluble fraction (log2)” value is -0.269. Take “HMDNEIRIPLPSLQRDGFSIGTREDDGSQLVRIMSAGSFGGMIRSFRLPEGMRIEGAKWEGEIVSIRL”: the “soluble fraction (log2)” value worked out at 0.0774.

Consider “HMDNEVTIAVQVNGKLRDKLIVALDTPNEKIEQLALALPKVIQNTSGLTVRKVIVIPNRLVNIVA”, for which the “soluble fraction (log2)” value is -0.171. As to “HMDNIKRGEMFYISRGGASYSGSEQHSDRPAVVVSNDKNNENSNVVEVVYMTTQPKTDLPTHVTVR”, the “soluble fraction (log2)” value amounted to 0.0894. In the case of “HMDNLKELDEILETYGKKKGYLITILQKAQDAYGYISIDIMNRISEFTGIKVAKIYGVATFYAQFRL” it was 0.146. Turning to “HMDNPLSQQEKRILQLISLGKTNQEIADILYLSNGTVRNYISSILNKLSANNRVEAARIAEEHGW”, the “soluble fraction (log2)” value was -0.73.
